Data on 1 substance can be found in patent US20040116653A1.

For the test, the target named is human CD4 on cells (MT-2, MT-4 cells; mouse SR.hCD4 cells transfected with human CD4) (human) (UniProt P01730). The experiment in a line: cell-based or functional assay.

Regarding “synthetic soluble multiple-branched peptide (MBP) corresponding to amino acids 51-74 of CD38 (CD3851-74 MBP)”, the EC50, inhibition of HIV-1IIIB infection of MT-4 cells (p24 ELISA, day 3) stood at 0.012 µM and the EC90, inhibition of HIV-1IIIB infection of MT-4 cells (p24 ELISA, day 3) stood at 0.075 µM.
